We go through 66 variants from the Human Domainome abundance scans (Beltran et al. 2025).

± gives the uncertainty stated by the source.

B1: Histidine--tRNA ligase, cytoplasmic, residues 8 to 45; numbered along this chain, P12081 (parent)
chain: EELVKLQGERVRGLKQQKASAELIEEEVAKLLKLKAQL

Variants of B1 are the subject of this data set. Briefly: abundance fitness (aPCA) (normalised: wild type 0, dead -1); higher = more abundant; growth selection in yeast, the domain comes from the species named. The conditions noted are these: Homo sapiens.
With EELVKLQGERVRGIKQQKASAELIEEEVAKLLKLKAQL [L14I], the abundance fitness is -0.263 ± 0.086.
The same measure for EELVKLQGERVRGHKQQKASAELIEEEVAKLLKLKAQL [L14H]: -0.397 ± 0.09; for EELVKLQGERVRGLCQQKASAELIEEEVAKLLKLKAQL [K15C]: -0.27 ± 0.093; for EELVKLQGERVRGLTQQKASAELIEEEVAKLLKLKAQL [K15T]: 0.001 ± 0.081.
The same measure for EELVKLQGERVRGLQQQKASAELIEEEVAKLLKLKAQL [K15Q]: 0.061 ± 0.093; for EELVKLQGERVRGLDQQKASAELIEEEVAKLLKLKAQL [K15D]: -0.271 ± 0.14; for EELVKLQGERVRGLNQQKASAELIEEEVAKLLKLKAQL [K15N]: -0.135 ± 0.093.
Consider EELVKLQGERVRGLHQQKASAELIEEEVAKLLKLKAQL [K15H], for which the abundance fitness is -0.127 ± 0.087.
EELVKLQGERVRGLYQQKASAELIEEEVAKLLKLKAQL [K15Y]: the abundance fitness was -0.41 ± 0.11.
Regarding EELVKLQGERVRGLWQQKASAELIEEEVAKLLKLKAQL [K15W], the abundance fitness is -0.412 ± 0.094.
The same measure for EELVKLQGERVRGLRQQKASAELIEEEVAKLLKLKAQL [K15R]: -0.1 ± 0.073; for EELVKLQGERVRGLLQQKASAELIEEEVAKLLKLKAQL [K15L]: -0.13 ± 0.075.
EELVKLQGERVRGLVQQKASAELIEEEVAKLLKLKAQL [K15V]: the abundance fitness was -0.103 ± 0.087.
The same measure for EELVKLQGERVRGLGQQKASAELIEEEVAKLLKLKAQL [K15G]: -0.274 ± 0.07; for EELVKLQGERVRGLAQQKASAELIEEEVAKLLKLKAQL [K15A]: -0.107 ± 0.069; for EELVKLQGERVRGLFQQKASAELIEEEVAKLLKLKAQL [K15F]: -0.164 ± 0.088.
As to EELVKLQGERVRGLSQQKASAELIEEEVAKLLKLKAQL [K15S], the abundance fitness was -0.184 ± 0.082.
In the case of EELVKLQGERVRGLEQQKASAELIEEEVAKLLKLKAQL [K15E], the abundance fitness turned out to be 0.187 ± 0.11.
Next, EELVKLQGERVRGLMQQKASAELIEEEVAKLLKLKAQL [K15M]: 0.149 ± 0.12; EELVKLQGERVRGLIQQKASAELIEEEVAKLLKLKAQL [K15I]: 0.017 ± 0.095.
The same measure for EELVKLQGERVRGLKQQGASAELIEEEVAKLLKLKAQL [K18G]: 0.172 ± 0.078; for EELVKLQGERVRGLKQQVASAELIEEEVAKLLKLKAQL [K18V]: -0.236 ± 0.075; for EELVKLQGERVRGLKQQYASAELIEEEVAKLLKLKAQL [K18Y]: -0.342 ± 0.088.
For the variant EELVKLQGERVRGLKQQQASAELIEEEVAKLLKLKAQL [K18Q], the abundance fitness came out at 0.066 ± 0.076.
Next, EELVKLQGERVRGLKQQTASAELIEEEVAKLLKLKAQL [K18T]: -0.083 ± 0.099; EELVKLQGERVRGLKQQDASAELIEEEVAKLLKLKAQL [K18D]: 0.221 ± 0.1.
Next, EELVKLQGERVRGLKQQWASAELIEEEVAKLLKLKAQL [K18W]: -0.619 ± 0.13.
The same measure for EELVKLQGERVRGLKQQFASAELIEEEVAKLLKLKAQL [K18F]: -0.45 ± 0.11; for EELVKLQGERVRGLKQQIASAELIEEEVAKLLKLKAQL [K18I]: -0.375 ± 0.14.
For EELVKLQGERVRGLKQQAASAELIEEEVAKLLKLKAQL [K18A], the abundance fitness was 0.047 ± 0.085.
Next, EELVKLQGERVRGLKQQRASAELIEEEVAKLLKLKAQL [K18R]: -0.06 ± 0.074; EELVKLQGERVRGLKQQMASAELIEEEVAKLLKLKAQL [K18M]: 0.067 ± 0.31.
As to EELVKLQGERVRGLKQQCASAELIEEEVAKLLKLKAQL [K18C], the abundance fitness is -0.112 ± 0.1.
Next, EELVKLQGERVRGLKQQPASAELIEEEVAKLLKLKAQL [K18P]: 0.004 ± 0.082.
The same measure for EELVKLQGERVRGLKQQHASAELIEEEVAKLLKLKAQL [K18H]: 0.239 ± 0.11.
Next, EELVKLQGERVRGLKQQKACAELIEEEVAKLLKLKAQL [S20C]: -0.09 ± 0.095.
For EELVKLQGERVRGLKQQKADAELIEEEVAKLLKLKAQL [S20D], the abundance fitness is 0.038 ± 0.073.
The same measure for EELVKLQGERVRGLKQQKAEAELIEEEVAKLLKLKAQL [S20E]: 0.068 ± 0.12; for EELVKLQGERVRGLKQQKNSAELIEEEVAKLLKLKAQL [A19N]: -0.406 ± 0.14; for EELVKLQGERVRGLKQQKPSAELIEEEVAKLLKLKAQL [A19P]: -0.145 ± 0.1.
The same measure for EELVKLQGERVRGLKQQKLSAELIEEEVAKLLKLKAQL [A19L]: -0.504 ± 0.088; for EELVKLQGERVRGLKQQKFSAELIEEEVAKLLKLKAQL [A19F]: -0.384 ± 0.12.
The same measure for EELVKLQGERVRGLKQQKQSAELIEEEVAKLLKLKAQL [A19Q]: -0.173 ± 0.094; for EELVKLQGERVRGLKQQKDSAELIEEEVAKLLKLKAQL [A19D]: -0.285 ± 0.089; for EELVKLQGERVRGLKQQKYSAELIEEEVAKLLKLKAQL [A19Y]: -0.612 ± 0.15.
For the variant EELVKLQGERVRGLKQQKMSAELIEEEVAKLLKLKAQL [A19M], the abundance fitness was -0.039 ± 0.13.
Next, EELVKLQGERVRGLKQQKRSAELIEEEVAKLLKLKAQL [A19R]: -0.255 ± 0.079; EELVKLQGERVRGLKQQKSSAELIEEEVAKLLKLKAQL [A19S]: -0.21 ± 0.082.
Next, EELVKLQGERVRGLKQQKESAELIEEEVAKLLKLKAQL [A19E]: -0.17 ± 0.12.
Next, EELVKLQGERVRGLKQQKWSAELIEEEVAKLLKLKAQL [A19W]: -0.424 ± 0.12.
EELVKLQGERVRGLKQQKGSAELIEEEVAKLLKLKAQL [A19G]: the abundance fitness was -0.27 ± 0.076.
Next, EELVKLQGERVRGLKQQKISAELIEEEVAKLLKLKAQL [A19I]: -0.538 ± 0.15; EELVKLQGERVRGLKQQKKSAELIEEEVAKLLKLKAQL [A19K]: -0.264 ± 0.18; EELVKLQGERVRGLKQQKCSAELIEEEVAKLLKLKAQL [A19C]: -0.034 ± 0.14.
The same measure for EELVKLQGERVRGLKQQKTSAELIEEEVAKLLKLKAQL [A19T]: -0.174 ± 0.083; for EELVKLQGERVTGLKQQKASAELIEEEVAKLLKLKAQL [R12T]: 0.05 ± 0.087.
Next, EELVKLQGERVMGLKQQKASAELIEEEVAKLLKLKAQL [R12M]: -0.216 ± 0.14; EELVKLQGERVQGLKQQKASAELIEEEVAKLLKLKAQL [R12Q]: 0.101 ± 0.087; EELVKLQGERVSGLKQQKASAELIEEEVAKLLKLKAQL [R12S]: 0.098 ± 0.084.
Turning to EELVKLQGERVLGLKQQKASAELIEEEVAKLLKLKAQL [R12L], the abundance fitness is -0.034 ± 0.078.
For EELVKLQGERVHGLKQQKASAELIEEEVAKLLKLKAQL [R12H], the abundance fitness is 0.005 ± 0.075.
Take EELVKLQGERVNGLKQQKASAELIEEEVAKLLKLKAQL [R12N]: the abundance fitness was -0.022 ± 0.089.
The same measure for EELVKLQGERVGGLKQQKASAELIEEEVAKLLKLKAQL [R12G]: 0.096 ± 0.13; for EELVKLQGERVIGLKQQKASAELIEEEVAKLLKLKAQL [R12I]: -0.077 ± 0.077; for EELVKLQGERVWGLKQQKASAELIEEEVAKLLKLKAQL [R12W]: -0.018 ± 0.18.
The same measure for EELVKLQGERVVGLKQQKASAELIEEEVAKLLKLKAQL [R12V]: -0.008 ± 0.081.
